System: Aspergillus flavus
Assay: Chickpea paste assay inoculated with A. flavus
Format: cell-based
Details: for fungal load count on YAG-agarose plates: 30° C, after 48 and 72 hours
Procedure: Sterilized and frozen chickpeas (100 g) were boiled for 15 minutes and ground using a blender. The ground chickpeas were treated with chloramphenicol (34 μg/μl) and tetracycline (12.5 μg/μl) to prevent microbial growth. The chickpeas were then inoculated with 500 spores/g of A. flavus and divided into groups of 7 g, and each group was treated with 7 ml of PBS×1 with different His-psoriasin concentrations to reach final concentrations of 0 μM, 50 μM, 100 μM, and 200 μM. The different groups were then divided into 1 g of treated and inoculated chickpeas in 6 well plates (1 g/well) and incubated in a humidified incubator at 30° C. Every day, 1 g of treated chickpeas from each group was diluted in PBS×1 and seeded on YAG-agarose plates to count colonies and calculate the fungi development through time.
For the visual evaluation of the treated/non-treated and inoculated/not-inoculated samples, the samples were prepared in the same way, but incubated at room temperatures and divided into groups of 3 g each.
Chickpeas were boiled and ground and then treated with a combination of chloramphenicol and tetracycline antibiotics (to eliminate bacterial growth) at final concentrations of 34 μg/μl and 12.5 μg/μl, respectively. Samples were divided into ‘inoculated with Aspergillus flavus’ and ‘non-inoculated’, and ‘treated’ and ‘non-treated’ with 180 μM His-psoriasin. All samples were placed in 20° C.
In a follow-up experiment, inoculated chickpea paste samples were treated with three different recombinant His-psoriasin concentrations, namely 50 μM, 100 μM, and 200 μM, and incubated at 30° C. Fungal load count was performed on YAG-agarose plates with antibiotics (chloramphenicol (34 μg/μl) and tetracycline (12.5 μg/μl)) to prevent bacterial growth after 48 and 72 hours.

B1: psoriasin: Recombinant human psoriasin (S100a7) containing a histidine tag, amino acid sequence SEQ ID NO: 11, expression vector pET-28a (protein, listed as Homo sapiens)
chain: MSNTQAERSIIGMIDMFHKYTRRDDKIEKPSLLTMMKENFPNFLSACDKKGTNYLADVFEKKDKNEDKKIDFSEFLSLLGDIATDYHKQSHGAAPCSGGSQ
- signs of fungal growth in chickpea paste (visual) (180 μM, 20° C, after 10 days): did not show any signs of fungal growth
- fungal load count on YAG-agarose plates (200 μM): No fungi had developed
- fungal load count on YAG-agarose plates (lower concentrations (50 μM, 100 μM)): reduced growth was observed
